The results in this text go back to publication PMC10360031 (ACS Applied Materials & Interfaces, 2023).

The assay has as its target T1, wild-strain SARS-CoV-2 spike protein RBD (SARS-CoV-2, UniProt P0DTC2).
T1 construct: also called S1 RBD; wild-type strain S1 RBD
In words: AFM single-molecule force spectroscopy. The following applies: one partner purified.

B1: cell-surface vimentin (CSV) on mouse embryonic fibroblasts mEF +/+ (natural protein)
chain: not shown
notes: also called extracellular Vim; native extracellular Vim; source: endogenous, on live mEF +/+ cells
Regarding B1, the koff (usually the first-order rate constant of dissociation) came to 0.19 ± 0.07 s⁻¹.
